Results from patent publication US8748480B2, “Methods for treating opioid tolerance” (priority 2005, dated 2014).

How the values were obtained:
Assay type in all cases: binding
Gβ1γ2 Tyr145Ala = biological target: T1, Gβ1γ2 Tyr145Ala (Rattus norvegicus, UniProt P54311, Y145A); experiment: Phage ELISA, b-βγ mutant Tyr145Ala; details: alanine-substituted Tyr145, N-Terminal Interface; mean ± SD
T1 construct: made in house; host or cells: Sf9 insect cells (baculovirus)
Excerpt: (§1) Wild-type Gβ1 and Gβ1 mutants were made in the baculovirus vector PDW464 which encodes a biotinylation site at a lysine upstream of the amino terminus of Gβ1 (Goubaeva, et al. (2003) supra). Mutants were generated by overlap extension PCR using standard protocols. The wild-type and mutant Gβ1 constructs consisted of a 20 amino acid biotin acceptor peptide (BAP) sequence fused in-frame with the amino-terminus of rat Gβ1 subunit. When coexpressed with biotin holoenzyme synthetase (BirA) in Sf9 cells, the Gβ1 subunit becomes covalently biotinylated in vivo at the Specific lysine acceptor residue in the BAP. Using this approach, 1-2 mg protein of purified protein can be obtained per liter of Sf9 insect cells. As 45 ng of protein is used in the phage ELISA assay, a single purification is sufficient for 10,000 to 30,000 binding assays.
(§2) Phage ELISA assays used to assess peptide binding to wild-type and mutant b-βγ were performed according to standard methods (Smrcka and Scott (2002) Methods Enzymol. 344:557-76). Briefly, 1 μg streptavidin was immobilized in the well of a […] overnight at 4° C. The wells were blocked with 100 μL of 2% bovine serum albumin (BSA) in Tris-buffered saline (TBS) for 1 hour at 4° C. followed by three washes of 1×TBS/0.5% TWEEN®. Forty μL of 25 nM bGβ1γ2 in TBS/0.5% TWEEN® was added to each well and incubated at 4° C. for 1.5 hour. The wells were washed, followed by the addition of 1×10^6 to 1×10^10 phage particles and incubated at 4° C. for 3 hours. The wells were then washed six times with TBS/0.5% TWEEN® followed by addition of 40 μL of 1:5000 dilution of anti-M13 antibody (Pharmacia, Uppsala, Sweden) and incubated at room temperature for 1 hour. The wells were washed, followed by the addition of 40 μL of (2,2′-Azino-bis(3-ethylbenzthiazoline)-6-sulfonic acid (ABTS) and the colorimetric reaction was monitored at 405 nm. Non-specific binding was subtracted for each reading.
(§3) Both assays were then carried out with Gβ1γ2 heterodimers containing mutations in the Gβ1 subunit.
(§4) The nine peptides were selected to represent the different consensus groups of peptides previously identified (See Scott et al. (2001) supra; Table 9) and to compare binding characteristics within and between consensus groups. […] As disclosed herein, the binding signal obtained in the ELISA assay was correlated to a loss in affinity by comparing the results to behavior of the peptide in a solution based assay. […] For the purposes of present disclosure, any substitution that decreased the binding to less than 20% of the wild-type binding was considered to be a critical binding contact for that peptide.

Gβ1γ2 Arg314Ala = biological target: T2, Gβ1γ2 Arg314Ala (Rattus norvegicus, UniProt P54311, R314A); experiment: Phage ELISA, b-βγ mutant Arg314Ala; details: alanine-substituted Arg314, Indirect; mean ± SD
T2 construct: made in house; host or cells: Sf9 insect cells (baculovirus)
T2 sequence (P54311 whole entry R314A): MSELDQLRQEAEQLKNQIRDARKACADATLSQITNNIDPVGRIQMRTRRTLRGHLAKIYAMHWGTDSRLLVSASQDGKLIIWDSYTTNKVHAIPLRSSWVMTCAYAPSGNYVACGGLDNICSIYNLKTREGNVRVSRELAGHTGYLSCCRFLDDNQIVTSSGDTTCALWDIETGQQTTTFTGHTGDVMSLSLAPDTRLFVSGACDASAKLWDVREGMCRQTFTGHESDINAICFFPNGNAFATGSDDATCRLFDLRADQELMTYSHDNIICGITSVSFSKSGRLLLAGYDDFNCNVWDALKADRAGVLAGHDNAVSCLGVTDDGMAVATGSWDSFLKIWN
T2 sequence (P63212 2-68 partner limits assumed): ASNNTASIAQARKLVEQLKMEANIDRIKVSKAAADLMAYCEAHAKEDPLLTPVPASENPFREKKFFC
Excerpt: as §1, §2, §3, §4

Gβ1γ2 Met101Ala = biological target: T3, Gβ1γ2 Met101Ala (Rattus norvegicus, UniProt P54311, M101A); experiment: Phage ELISA, b-βγ mutant Met101Ala; details: alanine-substituted Met101, C-Terminal Interface; mean ± SD
T3 construct: made in house; host or cells: Sf9 insect cells (baculovirus)
T3 sequence (P54311 whole entry M101A): as the sequence (P54311 whole entry R314A) above, with M101A, A314R counted along it
T3 sequence (P63212 2-68 partner limits assumed): as the sequence (P63212 2-68 partner limits assumed) above
Excerpt: as §1, §2, §3, §4

Gβ1γ2 His311Ala = biological target: T4, Gβ1γ2 His311Ala (Rattus norvegicus, UniProt P54311, H311A); experiment: Phage ELISA, b-βγ mutant His311Ala; details: alanine-substituted His311, Indirect; mean ± SD
T4 construct: made in house; host or cells: Sf9 insect cells (baculovirus)
T4 sequence (P54311 whole entry H311A): as the sequence (P54311 whole entry R314A) above, with H311A, A314R counted along it
T4 sequence (P63212 2-68 partner limits assumed): as the sequence (P63212 2-68 partner limits assumed) above
Excerpt: as §1, §2, §3, §4

Gβ1γ2 Asp186Ala = biological target: T5, Gβ1γ2 Asp186Ala (Rattus norvegicus, UniProt P54311, D186A); experiment: Phage ELISA, b-βγ mutant Asp186Ala; details: alanine-substituted Asp186, N-Terminal Interface; mean ± SD
T5 construct: made in house; host or cells: Sf9 insect cells (baculovirus)
T5 sequence (P54311 whole entry D186A): as the sequence (P54311 whole entry R314A) above, with D186A, A314R counted along it
T5 sequence (P63212 2-68 partner limits assumed): as the sequence (P63212 2-68 partner limits assumed) above
Excerpt: as §1, §2, §3, §4

Gβ1γ2 Leu117Ala = biological target: T6, Gβ1γ2 Leu117Ala (Rattus norvegicus, UniProt P54311, L117A); experiment: Phage ELISA, b-βγ mutant Leu117Ala; details: alanine-substituted Leu117, C-Terminal Interface; mean ± SD
T6 construct: made in house; host or cells: Sf9 insect cells (baculovirus)
T6 sequence (P54311 whole entry L117A): as the sequence (P54311 whole entry R314A) above, with L117A, A314R counted along it
T6 sequence (P63212 2-68 partner limits assumed): as the sequence (P63212 2-68 partner limits assumed) above
Excerpt: as §1, §2, §3, §4

Gβ1γ2 Asn230Ala = biological target: T7, Gβ1γ2 Asn230Ala (Rattus norvegicus, UniProt P54311, N230A); experiment: Phage ELISA, b-βγ mutant Asn230Ala; details: alanine-substituted Asn230, N-Terminal Interface; mean ± SD
T7 construct: made in house; host or cells: Sf9 insect cells (baculovirus)
T7 sequence (P54311 whole entry N230A): as the sequence (P54311 whole entry R314A) above, with N230A, A314R counted along it
T7 sequence (P63212 2-68 partner limits assumed): as the sequence (P63212 2-68 partner limits assumed) above
Excerpt: as §1, §2, §3, §4

Gβ1γ2 Tyr59Ala = biological target: T8, Gβ1γ2 Tyr59Ala (Rattus norvegicus, UniProt P54311, Y59A); experiment: Phage ELISA, b-βγ mutant Tyr59Ala; details: alanine-substituted Tyr59, C-Terminal Interface; mean ± SD
T8 construct: made in house; host or cells: Sf9 insect cells (baculovirus)
T8 sequence (P54311 whole entry Y59A): as the sequence (P54311 whole entry R314A) above, with Y59A, A314R counted along it
T8 sequence (P63212 2-68 partner limits assumed): as the sequence (P63212 2-68 partner limits assumed) above
Excerpt: as §1, with “BAP.” for “BAP. Using this approach, 1-2 mg protein of purified protein can be obtained per liter of Sf9 insect cells. As 45 ng of protein is used in the phage ELISA assay, a single purification is sufficient for 10,000 to 30,000 binding assays.”
as §2, with “Forty μL of 25 nM bGβ1γ2 in TBS/0.5% TWEEN® was added to each well and incubated at 4° C. for 1.5 hour.” left out
as §3
The nine peptides were selected to represent the different consensus groups of peptides previously identified (See Scott et al. (2001) supra; Table 9) and to compare binding characteristics within and between consensus groups. […] For the purposes of present disclosure, any substitution that decreased the binding to less than 20% of the wild-type binding was considered to be a critical binding contact for that peptide.

Gβ1γ2 Asp246Ser = biological target: T9, Gβ1γ2 Asp246Ser (Rattus norvegicus, UniProt P54311, D246S); experiment: Phage ELISA, b-βγ mutant Asp246Ser; details: Asp246 mutant (Asp246Ser), N-Terminal Interface; mean ± SD
T9 construct: made in house; host or cells: Sf9 insect cells (baculovirus)
T9 sequence (P54311 whole entry D246S): as the sequence (P54311 whole entry R314A) above, with D246S, A314R counted along it
T9 sequence (P63212 2-68 partner limits assumed): as the sequence (P63212 2-68 partner limits assumed) above
Excerpt: as §1, §2, §3, §4

Gβ1γ2 Trp332Ala = biological target: T10, Gβ1γ2 Trp332Ala (Rattus norvegicus, UniProt P54311, W332A); experiment: Phage ELISA, b-βγ mutant Trp332Ala; details: alanine-substituted Trp332, C-Terminal Interface; mean ± SD
T10 construct: made in house; host or cells: Sf9 insect cells (baculovirus)
T10 sequence (P54311 whole entry W332A): as the sequence (P54311 whole entry R314A) above, with A314R, W332A counted along it
T10 sequence (P63212 2-68 partner limits assumed): as the sequence (P63212 2-68 partner limits assumed) above
Excerpt: as §1, §2, §3, §4

Gβ1γ2 Met188Ala = biological target: T11, Gβ1γ2 Met188Ala (Rattus norvegicus, UniProt P54311, M188A); experiment: Phage ELISA, b-βγ mutant Met188Ala; details: alanine-substituted Met188, Shared; mean ± SD
T11 construct: made in house; host or cells: Sf9 insect cells (baculovirus)
T11 sequence (P54311 whole entry M188A): as the sequence (P54311 whole entry R314A) above, with M188A, A314R counted along it
T11 sequence (P63212 2-68 partner limits assumed): as the sequence (P63212 2-68 partner limits assumed) above
Excerpt: as §1, §2, §3, §4

Gβ1γ2 Trp99Ala = biological target: T12, Gβ1γ2 Trp99Ala (Rattus norvegicus, UniProt P54311, W99A); experiment: Phage ELISA, b-βγ mutant Trp99Ala; details: alanine-substituted Trp99, C-Terminal Interface; mean ± SD
T12 construct: made in house; host or cells: Sf9 insect cells (baculovirus)
T12 sequence (P54311 whole entry W99A): as the sequence (P54311 whole entry R314A) above, with W99A, A314R counted along it
T12 sequence (P63212 2-68 partner limits assumed): as the sequence (P63212 2-68 partner limits assumed) above
Excerpt: as §1, §2, §3, §4

Gβ1γ2 Lys57Ala = biological target: T13, Gβ1γ2 Lys57Ala (Rattus norvegicus, UniProt P54311, K57A); experiment: Phage ELISA, b-βγ mutant Lys57Ala; details: alanine-substituted Lys57, C-Terminal Interface; mean ± SD
T13 construct: made in house; host or cells: Sf9 insect cells (baculovirus)
T13 sequence (P54311 whole entry K57A): as the sequence (P54311 whole entry R314A) above, with K57A, A314R counted along it
T13 sequence (P63212 2-68 partner limits assumed): as the sequence (P63212 2-68 partner limits assumed) above
Excerpt: as §1, §2, §3, §4

T1 sequence (P54311 whole entry Y145A): as the sequence (P54311 whole entry R314A) above, with Y145A, A314R counted along it
T1 sequence (P63212 2-68 partner limits assumed): as the sequence (P63212 2-68 partner limits assumed) above

Sequence: LCSKAYLLLGQTC [2F]
- % of Wild-Type Signal, Tyr145 (Gβ1γ2 Tyr145Ala): 0.1 ± 6.5%
- % of Wild-Type Signal, Arg314 (Gβ1γ2 Arg314Ala): 2.4 ± 3.9%
- % of Wild-Type Signal, Met101 (Gβ1γ2 Met101Ala): 6.0 ± 5.1%
- % of Wild-Type Signal, His311 (Gβ1γ2 His311Ala): 23.6 ± 46.0%
- % of Wild-Type Signal, Asp186 (Gβ1γ2 Asp186Ala): 2.4 ± 3.5%
- % of Wild-Type Signal, Leu117 (Gβ1γ2 Leu117Ala): 2.1 ± 5.5%
- % of Wild-Type Signal, Asn230 (Gβ1γ2 Asn230Ala): 27.6 ± 19.1%
- % of Wild-Type Signal, Tyr59 (Gβ1γ2 Tyr59Ala): −2.0 ± 9.5%
- % of Wild-Type Signal, Asp246 (Gβ1γ2 Asp246Ser): 0.6 ± 2.5%
- % of Wild-Type Signal, Trp332 (Gβ1γ2 Trp332Ala): −1.5 ± 3.6%
- % of Wild-Type Signal, Met188 (Gβ1γ2 Met188Ala): 8.5 ± 5.2%
- % of Wild-Type Signal, Trp99 (Gβ1γ2 Trp99Ala): 32.6 ± 26.3%
- % of Wild-Type Signal, Lys57 (Gβ1γ2 Lys57Ala): −4.5 ± 6.2%

Sequence: SCEKRLGVRSCT [C5]
- % of Wild-Type Signal, Tyr145 (Gβ1γ2 Tyr145Ala): 16.7 ± 4.8%
- % of Wild-Type Signal, Arg314 (Gβ1γ2 Arg314Ala): 76.5 ± 6.7%
- % of Wild-Type Signal, Met101 (Gβ1γ2 Met101Ala): 47.8 ± 18.9%
- % of Wild-Type Signal, His311 (Gβ1γ2 His311Ala): 58.7 ± 14.4%
- % of Wild-Type Signal, Asp186 (Gβ1γ2 Asp186Ala): 45.7 ± 5.2%
- % of Wild-Type Signal, Leu117 (Gβ1γ2 Leu117Ala): 28.5 ± 5.2%
- % of Wild-Type Signal, Asn230 (Gβ1γ2 Asn230Ala): 33.5 ± 7.2%
- % of Wild-Type Signal, Tyr59 (Gβ1γ2 Tyr59Ala): 73.8 ± 16.6%
- % of Wild-Type Signal, Asp246 (Gβ1γ2 Asp246Ser): 56.3 ± 4.1%
- % of Wild-Type Signal, Trp332 (Gβ1γ2 Trp332Ala): 3.2 ± 3.7%
- % of Wild-Type Signal, Met188 (Gβ1γ2 Met188Ala): 97.2 ± 14.2%
- % of Wild-Type Signal, Trp99 (Gβ1γ2 Trp99Ala): 39.0 ± 3.8%
- % of Wild-Type Signal, Lys57 (Gβ1γ2 Lys57Ala): 5.6 ± 5.3%

Sequence: SCEKRYGIEFCT [C4]
- % of Wild-Type Signal, Tyr145 (Gβ1γ2 Tyr145Ala): 4.4 ± 3.8%
- % of Wild-Type Signal, Arg314 (Gβ1γ2 Arg314Ala): 1.4 ± 1.0%
- % of Wild-Type Signal, Met101 (Gβ1γ2 Met101Ala): 61.2 ± 30.9%
- % of Wild-Type Signal, His311 (Gβ1γ2 His311Ala): 36.5 ± 8.3%
- % of Wild-Type Signal, Asp186 (Gβ1γ2 Asp186Ala): 51.3 ± 15.0%
- % of Wild-Type Signal, Leu117 (Gβ1γ2 Leu117Ala): 18.4 ± 7.1%
- % of Wild-Type Signal, Asn230 (Gβ1γ2 Asn230Ala): 11.5 ± 6.0%
- % of Wild-Type Signal, Tyr59 (Gβ1γ2 Tyr59Ala): 7.6 ± 9.6%
- % of Wild-Type Signal, Asp246 (Gβ1γ2 Asp246Ser): 35.8 ± 7.4%
- % of Wild-Type Signal, Trp332 (Gβ1γ2 Trp332Ala): 1.7 ± 3.0%
- % of Wild-Type Signal, Met188 (Gβ1γ2 Met188Ala): 127.5 ± 22.4%
- % of Wild-Type Signal, Trp99 (Gβ1γ2 Trp99Ala): 67.0 ± 15.2%
- % of Wild-Type Signal, Lys57 (Gβ1γ2 Lys57Ala): −0.2 ± 1.9%

Sequence: SCGHGLKVQSTIGACA [3C]
- % of Wild-Type Signal, Tyr145 (Gβ1γ2 Tyr145Ala): 2.7 ± 10.5%
- % of Wild-Type Signal, Arg314 (Gβ1γ2 Arg314Ala): 8.3 ± 3.6%
- % of Wild-Type Signal, Met101 (Gβ1γ2 Met101Ala): −4.2 ± 5.5%
- % of Wild-Type Signal, His311 (Gβ1γ2 His311Ala): 30.5 ± 18.9%
- % of Wild-Type Signal, Asp186 (Gβ1γ2 Asp186Ala): 35.0 ± 17.2%
- % of Wild-Type Signal, Leu117 (Gβ1γ2 Leu117Ala): 10 ± 13.3%
- % of Wild-Type Signal, Asn230 (Gβ1γ2 Asn230Ala): 4.1 ± 4.4%
- % of Wild-Type Signal, Tyr59 (Gβ1γ2 Tyr59Ala): 8.5 ± 6.4%
- % of Wild-Type Signal, Asp246 (Gβ1γ2 Asp246Ser): 2.0 ± 2.7%
- % of Wild-Type Signal, Trp332 (Gβ1γ2 Trp332Ala): −0.3 ± 1.7%
- % of Wild-Type Signal, Met188 (Gβ1γ2 Met188Ala): −5.7 ± 5.6%
- % of Wild-Type Signal, Trp99 (Gβ1γ2 Trp99Ala): −0.5 ± 5.9%
- % of Wild-Type Signal, Lys57 (Gβ1γ2 Lys57Ala): 3.6 ± 7.5%
